Laboratory results reported in patent US8114968 (dated 2012).
Positions count from the first letter of the chain named. Where two headings read alike, the source gives them in different places.

Columns and labels:
M109-G11 [1] = biological target: M109-G11
Target sequence in this assay (P34960 110-473): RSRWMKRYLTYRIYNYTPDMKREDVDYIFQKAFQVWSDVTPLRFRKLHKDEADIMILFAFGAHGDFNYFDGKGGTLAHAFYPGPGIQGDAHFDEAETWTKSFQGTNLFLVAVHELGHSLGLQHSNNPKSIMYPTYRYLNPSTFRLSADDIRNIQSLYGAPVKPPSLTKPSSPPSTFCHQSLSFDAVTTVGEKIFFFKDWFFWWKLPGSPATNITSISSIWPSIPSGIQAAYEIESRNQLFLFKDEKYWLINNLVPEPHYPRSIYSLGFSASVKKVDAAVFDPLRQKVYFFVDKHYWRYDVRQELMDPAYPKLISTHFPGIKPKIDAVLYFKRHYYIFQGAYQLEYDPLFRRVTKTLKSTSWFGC

M107-A12 [2] = biological target: M107-A12
Target sequence in this assay (P34960 110-473): as above

M118-F11 [3] = experiment: -; column head prints nM
Target sequence in this assay (P34960 110-473): as above

M121-E07 [4] = experiment: -; column head prints nM
Target sequence in this assay (P34960 110-473): as above

human MMP-12 [5] = biological target: T1, human MMP-12 (UniProt P39900 106-470)
murine MMP-12 [6] = biological target: T2, murine MMP-12 (UniProt P34960 110-473); experiment: enzyme inhibition; recombinant; peptide substrate
T2 sequence (P34960 110-473): as above

murine MMP-12 [7] = biological target: T2, murine MMP-12
human MMP-12 [8] = biological target: T1, human MMP-12; experiment: enzyme inhibition
murine MMP-12 [9] = biological target: T2, murine MMP-12; experiment: -; column head prints nM
murine MMP-12 [10] = biological target: T2, murine MMP-12; experiment: enzyme inhibition
M118-F11 [11] = biological target: M118-F11
M109-G11 [12] = biological target: M109-G11; remark: listed apart in the source
M107-A12 [13] = biological target: M107-A12; remark: listed apart in the source
M121-E07 [14] = biological target: M121-E07

Sequence of M088-H10 (P34960 110-473): as above

B1: Mouse MMP12 (enzyme)
chain: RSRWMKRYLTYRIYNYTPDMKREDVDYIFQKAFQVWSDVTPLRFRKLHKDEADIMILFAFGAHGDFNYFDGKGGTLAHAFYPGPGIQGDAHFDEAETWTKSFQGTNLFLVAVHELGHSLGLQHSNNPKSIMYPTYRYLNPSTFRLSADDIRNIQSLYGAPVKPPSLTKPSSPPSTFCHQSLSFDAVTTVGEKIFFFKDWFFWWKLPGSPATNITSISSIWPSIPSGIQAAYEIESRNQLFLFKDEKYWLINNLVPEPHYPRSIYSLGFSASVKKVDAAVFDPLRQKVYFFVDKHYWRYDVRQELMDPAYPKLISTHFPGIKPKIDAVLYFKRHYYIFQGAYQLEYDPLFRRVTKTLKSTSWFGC
Question: B1 was tested. Which Kd (M088-H10) did it give?
Answer: The Kd was 34.4 nM.

Question: And the Kd (M109-G11 [1])?
Answer: Its Kd is 1 nM.

Question: What about the Kd (M107-A12 [2]) of the same binder?
Answer: Its Kd is 0.9 nM.

Question: What about the Kd (M118-F11 [3]) of the same binder?
Answer: Its Kd is 0.727 nM.

Question: What about the Kd (M121-E07 [4]) of the same binder?
Answer: The Kd was 0.181 nM.

B2: 539B-M0008-H09 (format not stated) (antibody, V domains shown)
VH: EVQLLESGGGLVQPGGSLRLSCAASGFTFSDYNMHWVRQAPGKGLEWVSYIGPSGGYTHYADSVKGRFTISRDNSKNTLYLQMNSLRAEDTAVYYCAKDIRGAYSSGLFDYWGRGTLVTVSS
VL: DIQMTQSPSSLSASVGDRVTITCRANQSIYTYLNWYQQKPGKAPELLIYAASSLQSGVPSRFSGSGSGTDFTLTISSLQPEDFATYYCQQAGIFGQGTKLEIK
Question: For B2, which Kd (human MMP-12 [5]) is on record?
Answer: Its Kd is 18 nM.

Question: What about the IC50 (murine MMP-12 [6]) of the same binder?
Answer: The IC50 was 3.7 nM.

B3: 539B-M0071-D09 (Fab, V domains shown)
VH: B2 VH with D31P, N33W, Y50G, G52S, P53S, Y57D, H59L
VL: B2 VL
Question: For B3, which Kd (murine MMP-12 [7]) is on record?
Answer: Its Kd is 1.3 nM.

Question: And the Kd (human MMP-12 [5])?
Answer: The Kd was 4.2 nM.

B4: 539B-M131A06 (antibody, V domains shown)
VH: B2 VH with D31W, N33W, Y50G, G52S, Y57M, H59M, K98R, R101V, A103P, S106A
VL: B2 VL
Question: Which results are given for B4?
Answer: Kd (human MMP-12 [5]): 0.18 nM; IC50 (human MMP-12 [8]): 0.321 nM; Kd (murine MMP-12 [9]): 0.0727 nM

B5: 539B-M0065-E12 (Fab, V domains shown)
VH: B2 VH with D31W, Y50G, G52S, Y57N, H59M
VL: B2 VL
Question: For B5, which Kd (murine MMP-12 [7]) is on record?
Answer: Its Kd is 1.7 nM.

Question: And the Kd (human MMP-12 [5])?
Answer: Its Kd is 1.1 nM.

B6: 539B-M131A06-GA-S (antibody, V domains shown)
VH: B2 VH with D31W, N33W, Y50G, G52S, Y57M, H59M, K98R, R101V, A103P, S106A
VL: DIQMTQSPSSLSASVGDRVTITCRASQSIYTYLNWYQQKPGKAPKLLIYAASSLQSGVPSRFSGSGSGTDFTLTISSLQPEDFATYYCQQAGIFGQGTKLEIKR
Question: Which IC50 (human MMP-12 [8]) does the source give for B6 here?
Answer: Its IC50 is 0.233 nM.

B7: 539B-M0069-D10 (Fab, V domains shown)
VH: B2 VH with D31L, N33H, Y50G, Y57W, H59I
VL: B2 VL
Question: What does the source list for B7?
Answer: Kd (murine MMP-12 [7]): 3.4 nM; Kd (human MMP-12 [5]): 5.7 nM

B8: 539B-M0071-H03 (Fab, V domains shown)
VH: B2 VH with D31P, N33W, Y50G, Y57P, H59F, V64I
VL: B2 VL
Question: For B8, which Kd (human MMP-12 [5]) is on record?
Answer: The Kd was 1 nM.

B9: 539B-M0011-H11 Fab (Fab, V domains shown)
VH: EVQLLESGGGLVQPGGSLRLSCAASGFTFSWYNMWWVRQAPGKGLEWVSYIYPSGGNTGYADSVKGRFTISRDNSKNTLYLQMNSLRAEDTAVYYCAVFEYSSSGPQGYWGQGTLVTVSS
VL: QSALTQPPSVSVAPGQTARITCGGNNIGTKSVHWYQQKSGQAPVLVVYDNSDRPSGIPERFSGSNSGNTATLTISRVEAGDEADYYCQVWDNSIDHVVFGGGTKLTVL
Question: For B9, which IC50 (murine MMP-12 [10]) is on record?
Answer: The IC50 was 9 nM.

B10: 539B-M11H11 IgG (antibody, V domains shown)
VH: B9 VH
VL: B9 VL
Question: How did the IC50 (murine MMP-12 [10]) turn out when B10 was run?
Answer: The IC50 was 3 nM.

B11: Human MMP12 (enzyme)
chain: GPVWRKHYITYRINNYTPDMNREDVDYAIRKAFQVWSNVTPLKFSKINTGMADILVVFARGAHGDFHAFDGKGGILAHAFGPGSGIGGDAHFDEDEFWTTHSGGTNLFLTAVHEIGHSLGLGHSSDPKAVMFPTYKYVDINTFRLSADDIRGIQSLYGDPKENQRLPNPDNSEPALCDPNLSFDAVTTVGNKIFFFKDRFFWLKVSERPKTSVNLISSLWPTLPSGIEAAYEIEARNQVFLFKDDKYWLISNLRPEPNYPKSIHSFGFPNFVKKIDAAVFNPRFYRTYFFVDNQYWRYDERRQMMDPGYPKLITKNFQGIGPKIDAVFYSKNKYYYFFQGSNQFEYDFLLQRITKTLKSNSWFGC
Question: How did the Kd (M118-F11 [11]) turn out when B11 was run?
Answer: The Kd was 1.17 nM.

Question: What about the Kd (M109-G11 [12]) of the same binder?
Answer: The Kd was 7.5 nM.

Question: And the Kd (M107-A12 [13])?
Answer: Its Kd is 1.8 nM.

Question: What about the Kd (M121-E07 [14]) of the same binder?
Answer: The Kd was 0.197 nM.
